Test results as given in US20130217572A1, “SPECIFIC DELIVERY OF AGROCHEMICALS” (VRIJE UNIVERSITEIT BRUSSEL, priority 2010, published 2013).

What was measured:
[1] = molecular target: T1, potato lectin (Sigma) (potato, UniProt Q9S8M0 23-323); experiment: VHH-coupled Uvitex microcapsules retained on potato lectin-coated wells; 4% surface coverage
T1 construct: Bought glycoprotein, coated on ELISA plates
T1 sequence (looked up): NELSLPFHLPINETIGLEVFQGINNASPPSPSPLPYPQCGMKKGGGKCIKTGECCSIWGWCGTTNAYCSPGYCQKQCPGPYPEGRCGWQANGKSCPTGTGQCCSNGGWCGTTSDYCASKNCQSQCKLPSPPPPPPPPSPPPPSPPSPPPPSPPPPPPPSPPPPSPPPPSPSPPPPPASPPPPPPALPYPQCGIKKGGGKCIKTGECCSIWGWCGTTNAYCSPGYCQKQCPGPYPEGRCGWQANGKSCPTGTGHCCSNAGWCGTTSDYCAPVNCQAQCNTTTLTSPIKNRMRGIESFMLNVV

[2] = molecular target: T1, potato lectin (Sigma); experiment: VHH-coupled Uvitex microcapsules retained on potato lectin-coated wells; 20% surface coverage
[3] = molecular target: T1, potato lectin (Sigma); experiment: VHH-coupled Uvitex microcapsules retained on potato lectin-coated wells; 100% surface coverage
[4] = molecular target: T1, potato lectin (Sigma); experiment: VHH-coupled Uvitex OB microcapsules retained on potato lectin-coated wells; 4% surface coverage
[5] = molecular target: T1, potato lectin (Sigma); experiment: VHH-coupled Uvitex OB microcapsules retained on potato lectin-coated wells; 20% surface coverage
[6] = molecular target: T1, potato lectin (Sigma); experiment: VHH-coupled Uvitex OB microcapsules retained on potato lectin-coated wells; 100% surface coverage
[7] = molecular target: T1, potato lectin (Sigma); experiment: VHH-coupled lambda-cyhalothrin microcapsules retained on potato lectin-coated wells; 4% surface coverage
[8] = molecular target: T1, potato lectin (Sigma); experiment: VHH-coupled lambda-cyhalothrin microcapsules retained on potato lectin-coated wells; 20% surface coverage
[9] = molecular target: T1, potato lectin (Sigma); experiment: VHH-coupled lambda-cyhalothrin microcapsules retained on potato lectin-coated wells; 100% surface coverage
[10] = molecular target: unrelated antigens; experiment: VHH-coupled Uvitex microcapsules retained on wells coated with unrelated antigen; 4% surface coverage
[11] = molecular target: unrelated antigens; experiment: VHH-coupled Uvitex microcapsules retained on wells coated with unrelated antigen; 20% surface coverage
[12] = molecular target: unrelated antigens; experiment: VHH-coupled Uvitex microcapsules retained on wells coated with unrelated antigen; 100% surface coverage
[13] = molecular target: T1, potato lectin (Sigma); experiment: VHH-coupled Uvitex microcapsules on potato lectin-coated wells; 25-fold less microcapsules applied
Protocol: An ELISA-like assay was performed using high bind half area microplates (Greiner Bio-One) coated with 5 μg/well potato lectin. Control wells included blank wells or wells coated with unrelated antigens. Plates were washed three times with PBS with 0.05%-TWEEN®-20 and blocked with 5% skimmed milk in PBS for 1 to 2 hours. VHH-coupled Uvitex-containing microcapsules were diluted to appropriate densities in 1% skimmed milk in PBS with 0.05%-TWEEN®-20. Five-fold serial dilution series were prepared and allowed to bind to the surface to compare binding of microcapsules coupled with monovalent or bivalent VHH. Microcapsules were added to the antigen-coated or control wells and allowed to bind for 1 hour. Unbound microcapsules were removed by washing five times with PBS with 0.05%-TWEEN®-20. The bottoms of ELISA plate wells were analyzed for bound microcapsules on a macrozoom microscope system (Nikon). Microcapsules were counted using Volocity image analysis software (Perkin Elmer). A DAPI filter was used to visualize Uvitex microcapsules.
The surface area of microcapsules with coupled bivalent VHH was 15-fold above the surface area of blank microcapsules applied at this microcapsule density while the surface area of microcapsules with monovalent VHH was only six-fold above the surface area of blank microcapsules applied at this microcapsule density. […]

Molecule: unrelated VHH
- surface area of bound microcapsules [1]: 19.2
- surface area of bound microcapsules [2]: 43.5
- surface area of bound microcapsules [3]: 142
- area of bound microcapsules [4]: 7.53
- area of bound microcapsules [5]: 35.4
- area of bound microcapsules [6]: 16.7
- counts of bound microcapsules (microcapsules) [7]: 348
- counts of bound microcapsules (microcapsules) [8]: 709
- counts of bound microcapsules (microcapsules) [9]: 828

B1: Bivalent VHH 3E6 (VHH)
chain: QVQLQESGGGLVQPGGTLSLSCAASGFNVRWYGMGWFRQAPGKEREGVACISALQETTAYADSVKGRFTLSRDNPKNTLSLQMNNLQPEDTGVYYCATTDCDDSSRMTYTSYLGQGTQVTVSSGGGGSGGGSQVQLQESGGGLVQPGGTLSLSCAASGFNVRWYGMGWFRQAPGKEREGVACISALQETTAYADSVKGRFTLSRDNPKNTLSLQMNNLQPEDTGVYYCATTDCDDSSRMTYTSYLGQGTQVTVSSAAAEQKLISEEDLNGAAHHHHHH
notes: Built from the general description of the bivalent constructs (two VHH in tandem); Tested covalently coupled to Uvitex microcapsules
- surface area of bound microcapsules [10]: 15
- surface area of bound microcapsules [11]: 22.1
- surface area of bound microcapsules [12]: 45.7
- fold of surface area above blank microcapsules [13]: 15 fold
